This note sets out measurements from patent US20200385745.

To fix the notation:
B1: keratinase derived from Brevibacillus parabrevis (CGMCC No. 10798), parent keratinase (protein)
chain: AQTVPYGIPQIKAPAVHAQGYKGANVKVAVLDTGIHAAHPDLNVAGGASFVPSEPNATQDFQSHGTHVAGTIAALDNTIGVLGVAPSASLYAVKVLDRYGDGQYSWIISGIEWAVANNMDVINMSLGGPSGSTALKNTVDTANNRGVVVVAAAGNSGSSGSSSTVGYPAKYDSTIAVANVNSNNVRNSSSSAGPELDVSAPGTSILSTVPSSGYTSYTGTSMASPHVAGAAALILSKNPNLTNSQVRQRLENTATPLGDSFYYGKGLINVQAASN
B2: keratinase double mutant N181D-T218S (protein)
chain: AQTVPYGIPQIKAPAVHAQGYKGANVKVAVLDTGIHAAHPDLNVAGGASFVPSEPNATQDFQSHGTHVAGTIAALDNTIGVLGVAPSASLYAVKVLDRYGDGQYSWIISGIEWAVANNMDVINMSLGGPSGSTALKNTVDTANNRGVVVVAAAGNSGSSGSSSTVGYPAKYDSTIAVANVDSNNVRNSSSSAGPELDVSAPGTSILSTVPSSGYTSYSGTSMASPHVAGAAALILSKNPNLTNSQVRQRLENTATPLGDSFYYGKGLINVQAASN
B3: keratinase mutant S236C (protein)
chain: AQTVPYGIPQIKAPAVHAQGYKGANVKVAVLDTGIHAAHPDLNVAGGASFVPSEPNATQDFQSHGTHVAGTIAALDNTIGVLGVAPSASLYAVKVLDRYGDGQYSWIISGIEWAVANNMDVINMSLGGPSGSTALKNTVDTANNRGVVVVAAAGNSGSSGSSSTVGYPAKYDSTIAVANVNSNNVRNSSSSAGPELDVSAPGTSILSTVPSSGYTSYTGTSMASPHVAGAAALILCKNPNLTNSQVRQRLENTATPLGDSFYYGKGLINVQAASN
B4: keratinase mutant T218S (protein)
chain: AQTVPYGIPQIKAPAVHAQGYKGANVKVAVLDTGIHAAHPDLNVAGGASFVPSEPNATQDFQSHGTHVAGTIAALDNTIGVLGVAPSASLYAVKVLDRYGDGQYSWIISGIEWAVANNMDVINMSLGGPSGSTALKNTVDTANNRGVVVVAAAGNSGSSGSSSTVGYPAKYDSTIAVANVNSNNVRNSSSSAGPELDVSAPGTSILSTVPSSGYTSSTGTSMASPHVAGAAALILSKNPNLTNSQVRQRLENTATPLGDSFYYGKGLINVQAASN
B5: keratinase mutant N181D (protein)
chain: AQTVPYGIPQIKAPAVHAQGYKGANVKVAVLDTGIHAAHPDLNVAGGASFVPSEPNATQDFQSHGTHVAGTIAALDNTIGVLGVAPSASLYAVKVLDRYGDGQYSWIISGIEWAVANNMDVINMSLGGPSGSTALKNTVDTANNRGVVVVAAAGNSGSSGSSSTVGYPAKYDSTIAVANVDSNNVRNSSSSAGPELDVSAPGTSILSTVPSSGYTSYTGTSMASPHVAGAAALILSKNPNLTNSQVRQRLENTATPLGDSFYYGKGLINVQAASN

The data set concerns the target keratin (substrate of the keratinase activity assay).
B1: the Michaelis-Menten constant (Km) – broadly, the substrate concentration at which the rate is half of its maximum – came out at 2100 µM. With B2, the Km was found to be 1800 µM. On to B3, for which the Km is 2200 µM. Regarding B4, the Michaelis constant (Km) was 1500 µM. For the protein B5, the Michaelis constant (Km) came out at 1900 µM.
